Among the data in a protein production outcome set (Wang et al. 2014) are protein production values, retold here.

A short description of the data set: label from the status in PepcDB records.

Regarding “MPQPDPQGFRRSLFLYRRAGMAEIGDFAVKFMIGIRSKRMITLPSLNNLPSKWDEIRHCLETRVFECGVMPYPNLTECEAGQFERDFWDNIGCAPEEYVRIRRAIRLLELRYPDSLNELVCAAIATPLGEMLAVFGVKGLCLLEFVGQKYLEQEIAAVQKALRGRFVFREDGRMQFLRQELDLYFKGHLKTFATPLEQIGTEFQKQAWDALLAIPYGETRSYKEQAQRLGNPKAVRAVAAANGQNKVSVMIPCHRVIGSDGKLTGYAGGLNRKQFLLALERGEVQTALF”, the protein production result is reported as “failed”.

Regarding “MPQPTSQQRASVASSQSTQGAVGWSAATGWVVLFVAVALVVWFVSLDMRHLVGPDEGRYAEISREMFASGDWVTIRYNALKYFEKPPFHMWVTVVGYELFGLGEWQARLAVALSGLLGIGVSMMAARRWFGARAAAFTGLALLAAPMWSVAAHFNTLDMTLAGVMSCVLAFMLMGQHPDASVAARRGWMVACWAAMGVAILTKGLVGIALPGLVLVVYTLVTRDWGLWRRLHLALGVVVMLVITVPWFYLVSVRNPEFPNFFFIHEHWQRYTSNIHSRSGSVFYFLPLVIGGFLPWAGIFPKLWTAMRAPVEGTQARFRPALMAGIWAIAIFVFFSISRSKLPGYIVPVIPALGILAGVALDRLSPRSWGKQLIGMAIVAACGLLASPVVATLNANHIPNSFYRAYAVWVAVAFVVMLLGIAVARLLLRRGVLPSVAVYAMGMYLGFTVALLGHETVGRPASGADIAPQIAQKLTPEMPLYGVQMLDHTLPFYLRHPLMMVGQADELTFGATVEPQRVVPDVDSFTKLWKNGQPAMAVMSPDTYLALAPTLSMYVVARDWRRVVVANVASLAGPQ”, the protein production entry is listed as “failed”. Take “MPQPTVLLLARADLSPVGTEFTTGPIDAHDPFDSGRRTAFVDEQGIAAGIVEFGTALSVEAYPYTEMLVMHRGSVTLTSGTDSVTLSTGESAVIGRGTQVRIDAQPESLWAFCASTQASGPDKSGITALDRLALLTPSSPPDPSIMISPLPQCRSNNLFEDTASTLRIGVWDSTPYERISRPHKIHELMNLIEGRVVLSLENGSSLTVNTGDTVFVAQGAPCKWTSTGYVRKFYAVT”: the protein production result is listed as “not failed”.

As for “MPQTSSLLGIDALYQFTGAGAQLFSGALFYTVIVRFFSASQVGAVALFIAIIGLFNLIFSFGLGTAVQHFASYHLGRQEYATAKSIVFKILILGIIFSSIGLITMFYLAKPISITFMHTAQYTPIVKLLSIVLVGDVLFGLLNGSALGLQLFRASGLMNIIIWITYYSTALVLAFLLKSLYYVVVGWSVGIFLGVILYLYLIIKSTKNYKGRPRHLTPSLLFQFSIPVLLSSIISYGATYIDRFIVAGLMTLSALGVYNFALLVASSIGFIVAPLNNIMLPKFSEFYGEGNRENIKNRTAIATTVVAGVYVPAALGVAVLSKMIITLLAGKYYEEGSDAISIIMVFSALFVTSNVMTQLIAAVRETRVFIYSSAASLASNAILSIILIPHFGIEGASIGFSSIYAASFFVLYKYAKKTGFYQANVYDLAKVWGSSLVMVFVVLAFEVRFGTSIDLLVPYILLGAVVYLGMIKSTRLIHRNEALFLSSLFPQSMPFITKLIRLISSE”, the protein production entry was “failed”. To “MPREFKSFGSTEKSLLSKGHGEPSYSEIYAEPENFLEIEVHNPKTHIPNGMDSKGMFTDYEIICRTNLPSFHKRVSKVRRRYSDFEFFRKCLIKEISMLNHPKVMVPHLPGKILLSNRFSNEVIEERRQGLNTWMQSVAGHPLLQSGSKVLVRFIEAEKFVG” belongs “not failed”. Turning to “MPRITTDTIIADVLRIDRGTIPIFLNNGLHCLGCPSAQGESIEEACALHGIDAQKLVDELNEYLKSKGLLDLEHHHHHH”, the protein production entry is recorded as “not failed”.

With “MPRMEALFNTVVPVALVVLSGYLLGRQLEMDLSTLSRLTLYALVPALILDSMYRAEYTLEGVWGLVLGFSLTYALLFLLVQGAGKLFGLSRETTKTLLVCGLFPNSGNMGLSLVYFALGEEGLRRAVVYFLLSSALMFGLGPAFIRGGSLKEGLLFTLRLPLFYALFLGLLLKALGLSLPFRLEEGVRLMGQAAIPVLLLTLGMQMGKTRFHLGPFEGAASALRLLLAPLVAYGVGALLGLPRLEHQVLVLQSATPVAVNAFLLTREFGGDALRVARSVVVSTFLAFLTVPLVLYLLGVR”, the protein production entry is given as “failed”. On to “MPRPDNVPVYTMRQLAAFVAVAETGTISGAAERMHLSQSALSAAVTDLEKALKAQLCVRRRARGVQLTPTGEAVLSRARALLQQAGELQSDASGEGGV”, for which the protein production result is listed as “failed”.
